According to patent publication US8563516B2, “Foxp3 peptide vaccine” (OncoTherapy Science, Inc., priority 2007, dated 2013):
“Also recorded” adds a separate entry of the source.

How the values were obtained:
HLA-A2 molecule = molecular target: T1, HLA-A2 molecule (Homo sapiens, UniProt P04439, D140Y/D185E/D98H/E176V/E277Q/G131W/G231S/I119V/I121R/I166T/I218V/L300P/L318F/N151K/N90K/P208A/P217A/Q86G/Q94H/R138H/R169H/T345S); assay: CTL induction with Foxp3-9-252 substitutions restricted HLA-A*0201; assay type: cell-based; conditions: FIG. 7C; for IFN-gamma production compared with the control: positive wells
T1 construct: peripheral blood mononuclear cells (PBMCs) isolated from normal volunteer (HLA-A*2402 and/or HLA-A*0201); endogenous in cells; host or cells: monocyte-derived dendritic cells of HLA-A*0201 volunteers; T2 cells as stimulators in the read-out
Experimental: (§1) In FIG. 7C CTLs could be induced by stimulation with Foxp3-9-252 substitutions targeted HLA-A2 molecule. CTLs for all substituted peptides targeted HLA-A2 molecule were generated in the way as described in “Materials and Methods”. […] CTL line induced with Foxp3-9-252-9V peptide was used as responder cells. T2 cells incubated with Foxp3-9-252-9V (-solid circle-) or Foxp3-9-252-WT (-open circle-) peptide and without any peptide (-open square-) were used as stimulator cells in this assay (1×10^4 cells/well).
Monocyte-derived dendritic cells (DCs) were used as antigen-presenting cells (APCs) to induce CTL responses against peptides presented on HLA. DCs were generated in vitro as described elsewhere (Horiguchi S. et al. Cancer Res. 59:2950-6). Specifically, peripheral blood mononuclear cells (PBMCs) isolated from normal volunteer (HLA-A*2402 and/or HLA-A*0201) with Ficoll-Plaque (Pharmacia) solution were separated by adherence to plastic tissue culture dish (Becton Dickinson) so as to enrich them for the monocyte fraction. The monocyte-enriched population was cultured in the presence of 1000 U/ml of GM-CSF (R&D System) and 1000 U/ml of IL-4 (R&D System) in AIM-V medium (Invitrogen) containing 2% heat-inactivated autologous serum (AS). After 7 days in the culture, the cytokine-generated DCs were pulsed with 20 mcg/ml of the synthesized peptides in the presence of 3 mcg/ml of beta2-microglobulin for 4 hrs at 20 degrees C. in AIM-V medium. These peptide-pulsed DCs were then inactivated with mitomycin C (MMC) (30 mcg/ml for 30 mins) and mixed at a 1:20 ratio with autologous CD8+ T cells, obtained by positive selection with CD8 Positive Isolation Kit (Dynal). These cultures were set up in 48-well plates (Corning); each well contained 1.5×10^4 peptide-pulsed DCs, 3×10^5 CD8+ T cells and 10 ng/ml of IL-7 (R&D System) in 0.5 ml of AIM-V/2% AS. Three days later, these cultures were supplemented with IL-2 (CHIRON) to a final concentration of 20 IU/ml. On day 7 and 14, the T cells were further restimulated with the peptide-pulsed autologous DCs. The DCs were prepared each time through the same procedure described above. CTL activity was tested against peptide-pulsed A24LCL cells or T2 cells after the 3rd round of peptide stimulation on day 21.
(§2) To examine the specific CTL activity, IFN-gamma ELISPOT assay and IFN-gamma ELISA were performed. Briefly, peptide-pulsed A24-LCL, T2 cell (1×10^4/well) or the cells endogenously expressing Foxp3 and HLA molecule was prepared as a stimulator cells. Cultured CTL lines in 48 wells were used as a responder cells. IFN-gamma ELISPOT assay and IFN-gamma ELISA were performed under manufacture procedure.
(§3) On the other hand, the present inventers attempted the induction of CTLs using all substitutions restricted HLA-A*0201 including Foxp3-9-252-9V peptide. […] After CTL line induced by stimulation with Foxp3-9-252-9V was established by in vitro expansion, the CTL activity was determined by using stimulator cells pulsed with Foxp3-9-252-WT or Foxp3-9-252-9V peptide.

peptide pulsed T2 cells [1] = assay: CTL line induced with Foxp3-9-252-9V against peptide-pulsed T2 cells; assay type: cell-based, human; conditions: FIG. 7D, listed as Foxp3-9-252-9V
Experimental: as §1, §3

peptide pulsed T2 cells [2] = assay: IFN-gamma ELISPOT: CTL line induced with Foxp3-9-252-WT against T2 cells pulsed with substituted peptide; assay type: cell-based, human; conditions: FIG. 7A, listed as Foxp3-9-252-9V
Experimental: IFN-gamma ELISPOT assay was performed using CTL line induced with Foxp3-9-252-WT peptide as responder cells and T2 cells pulsed Foxp3-9-252-WT or Foxp3-9-252-9V peptide as stimulator cells, respectively. T2 cells without peptide pulse were prepared as control. […] IFN-gamma ELISA assay was performed using CTL line induced with Foxp3-9-252-WT peptide as responder cells (1×10^5 cells/well) and Foxp3-9-252-WT (-solid circle-), Foxp3-9-252-9V (-open circle-) or HIV-A02 (-solid triangle-) peptide pulsed T2 cells as stimulator cells (1×10^4 cells/well). Peptide pulse of stimulator cells was conducted at 37 degree Celsius for 2 hours in each kind of peptide and peptide concentration.
as §2
And then the present inventers examined whether peptide-pulsed stimulator cells using these substitutions were recognized by CTLs generated with Foxp3-9-252-WT peptide.

- CTL induction by stimulation with substituted peptide (HLA-A2 molecule): CTLs were induced
- IFN-gamma production compared with the control (HLA-A2 molecule; listed as Foxp3-9-252-9V): showed IFN-gamma production
- IFN-gamma production compared with the control (HLA-A2 molecule; listed as Foxp3-A02-9-252-9V): peptide-dependent IFN-gamma production
Sequence: KLSAMQAHV (peptide vaccine) [SEQ ID NO 95]
- recognition of Foxp3-9-252-WT pulsed stimulator cells by CTLs induced with substituted peptide (peptide pulsed T2 cells [1]): recognized stimulator cells pulsed Foxp3-9-252-WT peptide as equal to that pulsed Foxp3-9-252-9V peptide; also recorded: recognize stimulator cells coated with Foxp3-9-252-WT peptide
- IFN-gamma production of Foxp3-9-252-WT induced CTLs against peptide pulsed T2 cells (peptide pulsed T2 cells [2]): produced IFN-gamma; also recorded: recognize the cells presenting Foxp3-9-252-9V peptide on HLA-A2 molecule
